Data: patent publication US20060286609A1 (BIOCHECK, published 2006)

Assays:
[1] = target: Human Id1: Histidine (human) (UniProt P41134); experiment: sandwich ELISA, 5-3-coated wells, human Id1:His 25.0 ng/ml, detected with rabbit polyclonal B-5133-HRP
[2] = target: Human Id1: Histidine (human) (UniProt P41134); experiment: sandwich ELISA, 5-3-coated wells, human Id1:His 50.0 ng/ml, detected with rabbit polyclonal B-5133-HRP

Human Id1: Histidine (human), sequence (P41134 whole entry): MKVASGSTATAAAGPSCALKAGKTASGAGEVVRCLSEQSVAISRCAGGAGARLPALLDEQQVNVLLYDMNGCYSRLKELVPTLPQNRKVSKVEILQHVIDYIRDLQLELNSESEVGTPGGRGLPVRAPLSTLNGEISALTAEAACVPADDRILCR

A450 [1]: 1.94 A450
A450 [2]: 3.15 A450
Substance: rabbit monoclonal anti-human Id1, clone #BCH-2/#5-3 (antibody)
